Results published in US20220184181A1 (Stanford University, published 2022).

Target: Met receptor on MDCK cells (UniProt Q75ZY9 25-1382, limits assumed)
Experiment: cell-based or functional assay

B1: recombinant Aras-4, soluble (ligand)
chain: YAEGQGKRRNTIHEFKKSAKTTLIKIDPALRIKTEKANTADQCANRCTRSKGLPFTCKAFVFDKARKRCLWFPFNSMSSGVKKEFGHEFDLYENKAYIRDCIIGRGRNYRGTVSITKSGIKCQPWSAMIPHEHSFLPSSYRGEDLRENYCRNPRGEEGGPWCYTSDPEVRYEVCDIPQCSEVE
Q: With B1 as the binder, how does the “inhibition of HGF-induced activation of Met” value read?
A: The value was about 5 fold lower concentration.
